The values below come from US20210324028A1.

The target of this experiment is human CD122/CD132 on cells of human PBMCs (human) (UniProt P14784). The experiment can be described thus: cell-based or functional assay.
Chain of human CD122/CD132 on cells of human PBMCs (human) (P14784 27-551, chain 1 of 2): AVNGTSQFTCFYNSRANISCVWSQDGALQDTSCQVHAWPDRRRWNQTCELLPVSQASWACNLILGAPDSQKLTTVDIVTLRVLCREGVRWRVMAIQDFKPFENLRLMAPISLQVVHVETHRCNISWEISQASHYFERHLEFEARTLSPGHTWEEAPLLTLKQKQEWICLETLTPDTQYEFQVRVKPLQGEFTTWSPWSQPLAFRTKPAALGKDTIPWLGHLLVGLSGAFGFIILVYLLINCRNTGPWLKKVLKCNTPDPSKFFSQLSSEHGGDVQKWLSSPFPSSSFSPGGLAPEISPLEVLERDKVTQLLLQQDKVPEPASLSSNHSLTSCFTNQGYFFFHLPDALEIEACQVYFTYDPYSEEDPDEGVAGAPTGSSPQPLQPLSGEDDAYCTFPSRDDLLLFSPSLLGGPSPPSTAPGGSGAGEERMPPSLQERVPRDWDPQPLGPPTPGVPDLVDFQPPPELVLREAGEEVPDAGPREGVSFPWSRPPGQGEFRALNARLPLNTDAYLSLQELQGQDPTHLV
Chain of human CD122/CD132 on cells of human PBMCs (human) (P31785 23-369, chain 2 of 2, further chain): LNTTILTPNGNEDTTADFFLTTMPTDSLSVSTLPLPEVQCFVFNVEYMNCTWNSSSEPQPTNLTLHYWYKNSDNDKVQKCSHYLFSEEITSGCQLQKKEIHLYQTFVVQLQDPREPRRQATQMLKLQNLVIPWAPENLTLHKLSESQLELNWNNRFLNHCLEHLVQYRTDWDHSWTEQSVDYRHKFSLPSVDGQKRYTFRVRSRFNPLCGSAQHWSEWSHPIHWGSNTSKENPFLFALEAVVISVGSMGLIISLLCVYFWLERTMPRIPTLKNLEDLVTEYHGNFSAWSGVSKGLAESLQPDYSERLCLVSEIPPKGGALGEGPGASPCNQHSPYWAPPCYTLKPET

B1: Isotype control--IL15 M1 (protein, part only; not given: Isotype control antibody chains and linker, part only)
heavy, part: AWVNVISDLKKIEDLIQSMHIDATLYTESNVHPSCKVTAMKCFLLGLQRISLESGDASIHDTVENLIILANNSLSSNGNVTESGCKECEELEEKNIKEFLQSFVHIVQMFINTS
For B1, the pSTAT5 EC50 on human CD8+cm T cells (hPBMC) came out at 3.67 nM and the pSTAT5 EC50 on human NK cells (hPBMC) is 0.946 nM.

B2: Isotype control--IL15 M2 (protein, part only; not given: Isotype control antibody chains and linker, part only)
heavy, part: GWVNVISDLKKIEDLIQSMHIDATLYTESNVHPSCKVTAMKCFLLGLQRISLESGDASIHDTVQNLIILANNSLSSNGNVTESGCKECEELEEKNIKEFLQSFVHIVQMFINTS
As to B2, the pSTAT5 EC50 on human CD8+cm T cells (hPBMC) came to 37.6 nM and the pSTAT5 EC50 on human NK cells (hPBMC) worked out at 11.2 nM.
